The text below walks through data of PMC4063679 (Structure (London, England : 1993), 2011).

The Kd is the equilibrium constant for the complex coming apart. High values mean a looser complex, low ones a tighter complex.

Assay [1] addresses T1, His-tagged I-BAR domain of IRSp53, wild type (human, UniProt Q9UQB8-4 1-250).
T1 sequence: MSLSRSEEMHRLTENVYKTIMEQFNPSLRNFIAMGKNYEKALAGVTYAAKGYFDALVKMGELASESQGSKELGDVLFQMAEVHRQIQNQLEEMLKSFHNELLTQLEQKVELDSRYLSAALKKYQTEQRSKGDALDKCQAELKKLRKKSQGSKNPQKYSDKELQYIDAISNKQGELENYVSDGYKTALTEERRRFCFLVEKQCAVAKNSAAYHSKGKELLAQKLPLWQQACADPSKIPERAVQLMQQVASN
The assay is described as follows: ITC. For orientation: Isothermal titration calorimetry measures the heat released or taken up as one component is titrated into another.

Assay [2] has as its target T1, His-tagged I-BAR domain of IRSp53, wild …. In words: ITC. The source holds these as a separate data set.

Like-named read-outs stand apart in the source and are kept apart here. Where no end group is shown, it is not given here.

Regarding GTVQNPYADVKT-NH2 [EHEC Tir-derived dodecapeptide GTVQNPYADVKT (residues 452-463)], binding in assay [1] was characterised by a dissociation constant (Kd) of 59 ± 10 µM.
Molecule SEVVNPYAEVGG-NH2 [EPEC Tir-derived 12-mer peptide SEVVNPYAEVGG (residues 448-459)] came in with a Kd in assay [2] of 37 ± 14 µM.
